Source: paper PMC2848186

The substances below were run against GST-GCN5 (assay: pull-down; GST-GCN5 (1 ug) immobilised on glutathione beads, pre-treated with DNase I and RNase H; incubated with 600 c.p.m. of in vitro translated [35S]-IN proteins in 0.2 mg/ml ethidium bromide; SDS-PAGE and phosphoimaging; bound protein as percent of radiolabeled input).
Sequence of GST-GCN5 (Q92830 2-837): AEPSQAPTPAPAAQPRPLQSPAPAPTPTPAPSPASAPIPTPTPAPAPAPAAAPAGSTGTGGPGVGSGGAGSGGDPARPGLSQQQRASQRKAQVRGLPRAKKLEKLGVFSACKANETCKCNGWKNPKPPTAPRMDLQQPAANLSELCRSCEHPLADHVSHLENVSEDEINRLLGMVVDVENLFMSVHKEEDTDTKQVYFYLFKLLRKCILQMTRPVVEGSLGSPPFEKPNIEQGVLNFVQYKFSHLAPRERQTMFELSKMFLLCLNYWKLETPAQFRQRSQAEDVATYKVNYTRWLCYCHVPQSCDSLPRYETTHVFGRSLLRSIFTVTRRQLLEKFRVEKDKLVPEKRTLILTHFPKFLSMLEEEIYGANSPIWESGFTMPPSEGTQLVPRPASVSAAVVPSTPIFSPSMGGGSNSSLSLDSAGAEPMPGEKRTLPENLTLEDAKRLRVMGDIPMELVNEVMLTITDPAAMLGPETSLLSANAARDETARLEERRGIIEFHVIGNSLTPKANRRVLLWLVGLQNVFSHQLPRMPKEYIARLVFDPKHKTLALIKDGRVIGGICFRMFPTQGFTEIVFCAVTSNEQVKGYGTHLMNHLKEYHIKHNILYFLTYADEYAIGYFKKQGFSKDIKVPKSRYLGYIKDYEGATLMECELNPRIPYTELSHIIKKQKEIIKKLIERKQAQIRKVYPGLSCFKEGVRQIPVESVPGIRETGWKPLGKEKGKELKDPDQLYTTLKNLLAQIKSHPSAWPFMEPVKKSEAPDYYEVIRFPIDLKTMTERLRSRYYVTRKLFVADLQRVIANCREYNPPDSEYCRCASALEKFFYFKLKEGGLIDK

| Substance | binding efficiency (percent of radiolabeled input bound) [%] |
| --- | --- |
| 35S-IN fragment 1-263 (from UniProt P04585 2-264) (domain or fragment) | 13 |
| 35S-IN fragment 1-272 (from UniProt P04585 2-273) (domain or fragment) | 13 |
| 35S-IN, full-length HIV-1 integrase, in vitro translated (from UniProt P04585) (enzyme) | 16 |
